The text below walks through data of patent US20250289899A1 (Genmab, published 2025).

The target in assay [1] is T1, recombinant His-tagged human FcγRIIIa (176-Val [V]) (human, UniProt P08637 17-208).
T1 construct: Bought; captured on anti-His chip; also called FcγRIIIa-V; not shown: His tag
The experiment in a line: SPR (Biacore), His-tagged FcγRIIIa-V captured on anti-His chip, antibody in solution, resonance units against antibody concentration. For orientation: SPR reads the build-up and loss of mass on a sensor chip optically.

Assay [2] concerns the target T2, human C1q (from normal human serum) (human, UniProt P02745 23-245; P02746 28-253; P02747 29-245).
T2 construct: 20% normal human serum was the source of C1q
Nature of the assay: flow cytometry, C1q (20% normal human serum) on human T cells pre-incubated with the antibody, FITC rabbit anti-human C1q, median MFI FITC; antibody concentration varied. How it is done: The P329R mutation was previously described to reduce interaction of IgG1 antibodies with C1q and FcgR (Overdijk et al, Molecular Cancer Therapeutics 2020). The effect of the P329R mutation on C1q binding of IgG1-CD27-A comprising the E345R mutation was tested in cellular C1q binding assays in vitro using human healthy donor T cells. Anti-HIV gp120 antibody IgG1-b12-F405L was used as non-binding isotype control antibody (ctrl). […] T cells (2×10⁶ cells/well) were pre-incubated in polystyrene 96-well round-bottom plates with antibody dilution series (8× five-fold dilution starting at 15 μg/mL final assay concentration) for 15 min at 37° C. to allow the antibodies to bind to the T cells. Then, cells were cooled on ice, supplemented with NHS as a source of human C1q (20% NHS final assay concentration) and incubated on ice for 45 min. Cells were subsequently incubated on ice with FITC-labeled Rabbit anti-human C1q antibody (DAKO, Cat #F0254; 20 μg/mL) for 30 min and resuspended in FACS buffer with TO-PRO-3 (ThermoFisher, Cat #T3605; 1:5,000 dilution). C1q binding was determined by flow cytometry measuring the FITC signal on live cells.
Background: Flow cytometry measures light scatter and fluorescence of single cells or particles in a stream.

Assay [3] has as its target T3, human CD27, full length, on cells (T cells, transfected HEK293F cells, Daudi cells, NFκB-luc2/CD27 Jurkat … (human, UniProt P26842 20-240)).
T3 construct: Residues 1-19 are stated to be the signal peptide; also called TNFRSF7
T3 sequence: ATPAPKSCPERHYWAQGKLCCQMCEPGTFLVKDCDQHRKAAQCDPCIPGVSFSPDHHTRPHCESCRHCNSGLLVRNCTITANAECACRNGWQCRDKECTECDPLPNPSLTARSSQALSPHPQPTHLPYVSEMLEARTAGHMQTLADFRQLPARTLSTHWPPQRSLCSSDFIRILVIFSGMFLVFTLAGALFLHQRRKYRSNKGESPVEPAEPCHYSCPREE
The experiment in a line: flow cytometry on CD8+ T cells in human PBMC, FITC goat anti-human IgG F(ab')2, median FITC. How it is done:
(§1) Binding of IgG1-CD27-A-P329R-E345R to CD27 on human healthy donor T cells was characterized in more detail using flow cytometry. Anti-HIV gp120 antibody variant IgG1-b12-P329R-E345R was used as non-binding control antibody (ctrl). Human PBMCs were isolated from buffy coats obtained from human healthy donors. PBMC (1×10⁵ cells/well) in FACS buffer were added to polystyrene 96-well round-bottom plates (Greiner bio-one, Cat #650101) and pelleted by centrifugation at 300×g for 3 min at 4° C. The cells were resuspended in 50 μL/well serial antibody dilutions in FACS buffer (range 0.0015 to 10 μg/mL in 3-fold dilution steps) and incubated for 30 min at 4° C. Cells were pelleted, washed twice with FACS buffer and incubated in 50 μL/well with FITC-conjugated secondary antibody (FITC AffiniPure F(ab′)₂ fragment goat anti-human IgG, F(ab′)₂ fragment specific, Jackson ImmunoResearch, Cat #109-096-097, diluted 1:100) for 30 min at 4° C. in the dark. […] The samples were measured by flow cytometry on an LSRFortessa (BD) flow cytometer and analyzed using FlowJo software. Binding curves were analyzed using non-linear regression (sigmoidal dose-response with variable slope) using GraphPad Prism 8 software.

The target of assay [4] is T4, recombinant His-tagged human FcγRIIa (167-Arg [R]) (human, UniProt P12318 34-218, limits assumed).
T4 construct: Bought; captured on anti-His chip; also called FcγRIIa-R; not shown: His tag
T4 sequence (looked up): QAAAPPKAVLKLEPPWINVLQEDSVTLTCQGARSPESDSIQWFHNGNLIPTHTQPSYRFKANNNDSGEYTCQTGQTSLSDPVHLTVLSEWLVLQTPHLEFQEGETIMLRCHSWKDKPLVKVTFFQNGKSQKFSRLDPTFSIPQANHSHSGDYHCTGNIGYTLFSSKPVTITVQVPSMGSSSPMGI
Nature of the assay: SPR (Biacore), His-tagged FcγRIIa-R captured on anti-His chip, antibody in solution, resonance units against antibody concentration.

Assay [5] addresses T3, human CD27, full length, on cells (T …). The experiment in a line: flow cytometry on CD4+ T cells in human PBMC, FITC goat anti-human IgG F(ab')2, median FITC. How it is done: as §1

T2 sequence (P02745 23-245 limits assumed, chain 1 of 3): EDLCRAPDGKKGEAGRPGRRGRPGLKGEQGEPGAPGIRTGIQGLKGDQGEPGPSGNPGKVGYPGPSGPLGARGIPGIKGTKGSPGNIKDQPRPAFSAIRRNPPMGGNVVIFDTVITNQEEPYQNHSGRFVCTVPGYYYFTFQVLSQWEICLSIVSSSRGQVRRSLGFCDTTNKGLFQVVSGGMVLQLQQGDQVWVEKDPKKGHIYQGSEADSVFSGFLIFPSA
T2 sequence (P02746 28-253 limits assumed, chain 2 of 3): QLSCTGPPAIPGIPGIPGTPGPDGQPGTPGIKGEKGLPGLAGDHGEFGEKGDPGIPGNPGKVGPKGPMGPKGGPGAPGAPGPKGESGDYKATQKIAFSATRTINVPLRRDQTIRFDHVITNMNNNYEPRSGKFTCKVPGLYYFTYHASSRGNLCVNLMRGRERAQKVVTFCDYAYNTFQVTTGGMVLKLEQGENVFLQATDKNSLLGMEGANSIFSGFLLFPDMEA
T2 sequence (P02747 29-245 limits assumed, chain 3 of 3): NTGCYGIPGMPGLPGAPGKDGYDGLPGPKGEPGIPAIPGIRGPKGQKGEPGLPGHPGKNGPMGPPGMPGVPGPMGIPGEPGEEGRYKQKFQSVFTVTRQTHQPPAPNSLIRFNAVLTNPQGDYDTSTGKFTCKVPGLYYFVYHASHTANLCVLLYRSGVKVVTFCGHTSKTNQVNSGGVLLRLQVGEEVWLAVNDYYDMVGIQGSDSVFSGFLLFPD
T1 sequence (P08637 17-208 F176V limits assumed): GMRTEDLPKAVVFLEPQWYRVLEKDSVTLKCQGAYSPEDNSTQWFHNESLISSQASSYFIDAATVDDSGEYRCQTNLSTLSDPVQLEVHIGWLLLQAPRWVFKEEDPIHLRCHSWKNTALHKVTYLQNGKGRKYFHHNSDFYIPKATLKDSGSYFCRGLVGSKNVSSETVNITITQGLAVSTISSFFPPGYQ

B1: IgG1-CD27-A-P329R-E345R (antibody)
heavy: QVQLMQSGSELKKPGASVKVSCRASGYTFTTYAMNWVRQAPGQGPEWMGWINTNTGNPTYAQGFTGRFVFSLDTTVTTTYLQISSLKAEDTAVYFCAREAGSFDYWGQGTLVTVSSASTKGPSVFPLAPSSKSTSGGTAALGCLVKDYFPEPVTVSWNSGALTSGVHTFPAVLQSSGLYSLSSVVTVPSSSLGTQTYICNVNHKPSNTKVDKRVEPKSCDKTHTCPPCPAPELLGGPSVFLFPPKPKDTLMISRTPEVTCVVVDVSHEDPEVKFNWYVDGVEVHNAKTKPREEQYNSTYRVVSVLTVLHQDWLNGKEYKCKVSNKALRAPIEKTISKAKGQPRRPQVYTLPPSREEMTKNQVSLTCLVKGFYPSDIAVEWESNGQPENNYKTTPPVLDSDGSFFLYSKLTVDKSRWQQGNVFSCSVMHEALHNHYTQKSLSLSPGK
light: QSALTQPASVSGSPGQSITISCTGTSSDVYYYNYVSWYQQHPGRAPKLVIYDVSNRPSGVSNRFSGSKSGNTASLTISGLRAEDEADYYCSSYTVNRVWVFGGGTKLTVLGQPKAAPSVTLFPPSSEELQANKATLVCLISDFYPGAVTVAWKADSSPVKAGVETTTPSKQSNNKYAASSYLSLTPEQWKSHRSYSCQVTHEGSTVEKTVAPTECS
notes: also called IgG1-CD27-A-E345R-P329R
With B1, the results for the binding result in assay [1], in assay [2] and in assay [4] were “no binding (tested: 10,000 nM)”, “no binding (tested: 15 µg/mL)” and “no binding (tested: 10,000 nM)”, respectively. Further, the 50% effective concentration (EC50 (read off the curve)) in assay [3] and in assay [5] was ~0.03 µg/mL each time.
